# Experimental data published in the DeepSol protein solubility set.
# Experiment: soluble on expression in E. coli; label from the status in PepcDB or PDB records
row,Sequence,soluble on expression in E. coli
1,MPPPSPLHLDPIEEAHRQWTKHGWGDVADGMAAVTSVMRAQQIMMARVEEVLKPSGLTFARYELLTLLTFTRTGALPMAKASARLQVHPTSVTNAVDRLETANLVRRVPHPSDRRATLIEITDAGRKLAVESTERLNAQVFSRPGVSGDKLEQLVTILAELRREAGDFDTGDAPTKW,not soluble
2,MGSDKIHHHHHHMSDALLNAGRQTLMLELQEASRLPERLGDDFVRAANIIIHCEGKVIVSGIGKSGHIGKKIAATLASTGTPAFFVHPAEALHGDLGMIESRDVMLFISYSGGAKELDLIIPRLEDKSVALLAMTGKLHSPLGRAAKAVLDISVEREACPMHLAPTSSTVNTLMMGDALAMAVMQARGFNEEDFARSHPAGALGARLLNNVHHLMRQGDAIPQVMLATSVMDAMLELSRTGLGLVAVCDEQHVVKGVFTDGDLRRWLVGGGALTTPVSEAMTPNGITLQAQSRAIDAKELLMKRKITAAPVVDENGKLTGAINLQDFYQAGII,not soluble
3,MKFKSRVQMLNYVIGKKPDIMKTVDRRAEKEGVTDDNRLLDYKLLVISVLDAEAVYDEDRPIEEKKFSTSQEVDKYLETRFKEHMDSAWKEMFNK,not soluble
4,GMSAPEDWNSQVIQEFRANGGRVGGNFEGAPMVLVHHVGRKTGKAAVTPMMYLPSDDDPGTIYVFASKAGAASNPAWYYNLTTAGTAQVEVGTETYAVGVTEVTGEDRDRIYSEQARRYPGFADYEKKTAGIRTIPVLALTRT,soluble
5,VLLKEGARGSAPSAPPPLAVPAFFPLEPLTVNLQSDDGVQHYLRVGLSLKLTDPKAQEYLTQHMPELRSRILLALSNKHPEQLATLEGKRALADELKTLIEQPTQPGNQSARVDDVLFTEFVVQ,not soluble
6,MGSDKIHHHHHHMNPSSRHPQHSDTAASGASEGVPRRYASGRQYELRRGDALAVVTELAAGLRLYSRGGVQLTETYGDGDIPPGATGITLAPWANRVEDGVWYLNGKKQQLDITEVSRNNASHGLLRNAAYELVDEAEFSVTLEAPVFPQHGYPFLVRHRVQYLLAEDLGLVVRQTLLNDSQAPAPFVLGAHPYLRLGDVPASDLVLTVGTGSRLVADERLIPRSSEQVDGATDLRGGRTVSELDIDVAYTDLTFDGGVARQTLKASDGRSVSLWQDENCSYVHVFVTDQYPGRAKAVAIEPMTGPANAFNSGDGLRWLPAGESFTMTWGISASL,not soluble
7,MALNRMRQAKGAVASLLQNAYVHRDQVSLISFRGKQAQVLLPPSQSVDRAKRELDVLPTGGGTPLASALLTGWETAKQARAKGITQIMFVMITDGRGNIPLGAAYDPNATKASKEELEKEVEALALSIQADGIASIVVDTQMNYLSRGEAPKLAQKLGGRYFYLPNAKAEQIVEAALS,not soluble
8,VRSSSRTPSDMPVAHVVANPQAEGQLQWKNAGANALLANGVELRDNQLVVPSEGLYLIYSQVLFSGQGCPSTHVLLTHTISRIAVSYQTPVNLLSAIRSPCQRETPEGAEANPWYEPIYLGGVFQLEPGDRLSAEINRPDYLDFASTGQVYFGIIAL,soluble
9,RAKQQAAKSERRVRELTEATNDILWEFTADLSEVLVINSAYEDIWGRSVAKLRENPHDFLNGIHPEDRELMKDTMQSLMDGESADVECRVNATEEYQRWVWIQGEPITNDAGETVRVAGFARDIT,soluble
10,MAHHHHHHMSTFARRRIIQDLNKINKEKNKSFEASPFADNIMYCHAIIRGPDDTIWECGIFHLIIHFSEEYPVSPPKLRFLSKIYHPNIYSDGNICLDILQNQWSPIYDITSILTSIQSLLNDPNTSSPANPEAARIFINNRNLYNKRVLMCVEDSWEIPKFNINNYS,not soluble
11,EQGREPSWGFTEKSRTRDIPETLVPLITVTPSTELYRITGWGALEGHKVFYHETYINPEVAPGFIEQLENHSFSAVWEKCYQKETVVKKLIFKPVRMPGDISKYLGGSAGMPAILIEKHRADQQGNIVQIDIEYWRFEAVDLIINL,not soluble
12,SVCAEAYNPDEEEDDAESRIIHPKTDDQRNRLQEACKDILLFKNLDPEQMSQVLDAMFEKLVKEGEHVIDQGDDGDNFYVIDRGTFDIYVKCDGVGRCVGNYDNRGSFGELALMYNTPRAATITATSPGALWGLDRVTFRRIIVKNNAKKRKMYESFIESLPFLKSLEVSERLKVVDVIGTKVYNDGEQIIAQGDSADSFFIVESGEVRITMKRKGKSDIEENGAVEIARCLRGQYFGELALVTNKPRAASAHAIGTVKCLAMDVQAFERLLGPCMEIMKRNIATYEEQLVALFGTNMDIVEPTA,soluble
13,MSDNDDDFMCDDDEDYGLEYSEDSNSEPDVDLENQYYNSKALKEEEPKAALASFQKVLDLENGEKGEWGFKALKQMIKINFRLCNYDEMMVRYKQLLTYIKSAVTRNHSEKSINSILDYISTSKNMALLQNFYETTLDALRDAKNDRLWFKTNTKLGKLYFDRSDFTKLQKILKQLHQSCQTDDGEDDLKKGTQLLEIYALEIQMYTVQKNNKKLKALYEQSLHIKSAIPHPLIMGVIRECGGKMHLREGEFEKAHTDFFEAFKNYDESGSPRRTTCLKYLVLANMLMKSGINPFDSQEAKPYKNDPEILAMTNLVNSYQNNDINEFETILRQHRSNIMADQFIREHIEDLLRNIRTQVLIKLIRPYKNIAIPFIANALNIEPAEVESLLVSCILDDTIKGRIDQVNQVLQLDKINSSASRYNALEKWSNQIQSLQFAVVQKMA,soluble
14,MSLTGGISAFGRMVWEGIQIAHEEKPTVLGEEVELVLLDTRSEKTEAANAAARAIDKEKVLAIIGEVASAHSLAIAPIAEENKVPMVTPASTNPLVTQGRKFVSRVCFIDPFQGAAMAVFAYKNLGAKRVVVFTDVEQDYSVGLSNFFINKFTELGGQVKRVFFRSGDQDFSAQLSVAMSFNPDAIYITGYYPEIALISRQARQLGFTGYILAGDGADAPELIEIGGEAVEGLLFTTHYHPKAASNPVAKKFVEVYKEKYGKEPAALNALGYDAYMVLLDAIERAGSFDREKIAEEIRKTRNFNGASGIINIDENGDEGHHHHHH,not soluble
15,MAHHHHHHMFKQRDNEYHPPMTVDPSGGGVTTSAGVFGEVGMGNVASPFLDGPAAVAGSRKRGRDIRSLDRFRAVVYGEDGFRRLHAMVARNPVLMYPPDGIEAARARVMVRKAELQSQLRSALGHREHNRNPADNGDDDVFALFEARRRAESDVHPATEGEEVPRQPASEHAPLPSSLASIRQDEELATYHHKQLDSYLRLLYEFNHATFVKLPMEDTLRLLSRCGKEAVAHIVEYETQVRLRRQSRIRDLNELRQEQAALEERRLAIDDAEQARLVQSAELRQAELDLELDNGVVKAEPPDDGSADEDVKVILETSSSSVHFASLPAGDSPEENMDGIVMAVEDEGIQYT,not soluble
16,MSLQIAQVLVDVPTMQTNRPYSYRIPTAWQSQVQPGMRVVVPFGRGKRRVQGFVLALDDVTNFDGELKPIDAVVDLAPVLNTEALALTKWLAASTFSFQITCAQTMLPAVMRAKYEKQLRTTATTPATIRTTLFGDQSMVPFDDVATTPAIVSQLLRLQAAGQVDVYYQVKNQARRKTQTAVKAALTNEALQAAVDQVRAGATQQLAVLQGLLTLNGEQLSQKAFCTRFDVTDGAIRTAVQKGWLKKVAVEVYRDPYATSDIKTTKALQLNDEQQVAVDQITQAVDQAATTTFLLEGVTGSGKTEVYLQSMAAALVQGKTALMLVPEISLTPQMVQRVKGRFGKAVAVLHSGLSSGEKYDEWRRIQRGEAQVVVGARSAVFAPLKNLGLIVMDEEHESTYKQDDAPRYHARQVALWRSRYHNCPVVLGSATPSLETRARAEKGVYQRLLLADRVNRRPLPKVSIIDMKKEMQQHAESNFSAPLLVALQDRLERHEQSVLMLNRRGYSSFVLCRDCGFVLKCPNCDISLTLHMDTHTMKCHYCGHEEAIPRNCPNCHSRQIRYYGTGTEKVEEELQDLLPDANIIRMDNDTTRKKGAHAKLLAQFGSGEADILIGTQMIAKGLDFPNVTLVGVLNADTALGLPDFRASERTFQLLTQVSGRAGRAEKSGHVYIQTFNPDHYAIRFAQHHDYEGFFKYEMQMRHRGGYPPYYFTVQITASDLDEGVAAKRMYQLLQWLRPRLAPSTILLGPTPKPIARVNRRYYYQIVIKYKQEPNLAQTLTTLLHETQAQQRQGLQIGIDVEPLHFMEGHHHHHH,soluble
17,GEFAQECQNLEVERQRRLERIKQKQSQLQELILQQIAFKNLVQRNRHAEQQASRPPPPNSVIHLPFIIVNTSKKTVIDCSISNDKFEYLFNFDNTFEIHDDIEVLKRMGMACGLESGSCSAEDLKMARSLVPKALEPYVTEMAQGTVGGVFITTA,soluble
